# Where a chain is given by its changes, count along the chain named. In names and notes the source's numbering stands.
# T1: human BCMA protein (human, UniProt Q02223 1-54, limits assumed)
# T1 sequence: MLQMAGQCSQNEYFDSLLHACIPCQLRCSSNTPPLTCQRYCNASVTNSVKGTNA
# T2: human BCMA on BCMA expressing cell lines (human, UniProt Q02223 1-184)
# T2 sequence: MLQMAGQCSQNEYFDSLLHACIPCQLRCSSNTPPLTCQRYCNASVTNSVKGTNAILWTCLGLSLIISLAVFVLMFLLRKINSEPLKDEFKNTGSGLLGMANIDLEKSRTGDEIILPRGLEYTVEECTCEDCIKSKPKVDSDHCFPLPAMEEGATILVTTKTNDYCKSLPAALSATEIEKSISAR
# B1: BCMA targeting trispecific protein 02H06 (other)
# VHH: EVQLVESGGGLVQPGRSLTLSCAASTNIRSISPMGWYRQAPGKQRELVAAIHGSSTLYADSVKGRFTISRDNAKNSIYLQMNSLRPEDTALYYCNKVPWGDYHPRNVVWGQGTQVTVSS
# notes: trispecific; not shown: The C-terminal 6xHis tag is left out because it follows these missing domains
# B2: BCMA targeting trispecific protein 02E05 (other)
# VHH: B1 VHH with R29F, I31R, S54I, R105G, V108Y
# notes: trispecific; also called 02E05 TriTAC; not shown: the C-terminal 6xHis tag follows those domains and is left out
# B3: BCMA targeting trispecific protein 02H11 (other)
# VHH: B1 VHH with R29T, S54E, V108Y
# notes: trispecific; not shown: the C-terminal 6xHis tag follows those domains and is left out
# B4: BCMA targeting trispecific protein 02G06 (other, not shown: large carriers; small tags and cut ends)
# VHH: B1 VHH with R29F, I31G, S54N, R105G, V108Y
# notes: trispecific
# B5: BCMA targeting trispecific protein 02G11 (other, not shown: large carriers; small tags and cut ends)
# VHH: B1 VHH with R29D, V108T
# notes: trispecific
# B6: BCMA targeting trispecific protein 02G07 (other, not shown: large carriers; small tags and cut ends)
# VHH: B1 VHH with R29F, S32T, S54E, N106D, V108Y
# notes: trispecific
# B7: BCMA targeting trispecific protein 02F04 (other, not shown: large carriers; small tags and cut ends)
# VHH: B1 VHH with R29F, I31S, S54F, R105G, V108Y
# notes: trispecific; also called 02F04 TriTAC
# B8: BCMA targeting trispecific protein 02H05 (other)
# VHH: B1 VHH with I28Q, R29F, S54K
# notes: as for B1
# B9: BCMA targeting trispecific protein 01H08 (other)
# VHH: B1 VHH with R29M, S54F, L57V, R105G, V108Y
# notes: trispecific; also called 01H08 TriTAC; not shown: the C-terminal His6 follows those missing domains and is left out
# B10: BCMA targeting trispecific protein 02G09 (other)
# VHH: B1 VHH with R29F, I31D, S54F, V108A
# notes: as for B1
# B11: BCMA targeting trispecific protein 02G02 (other)
# VHH: B1 VHH with R29F, S32T, S54A, R105G, V108Y
# notes: trispecific; also called 02G02 TriTAC; not shown: anti-albumin domain, anti-CD3 domain and the linkers of the trispecific (TriTAC) format
# B12: BCMA targeting trispecific protein 01G08 (other, not shown: large carriers; small tags and cut ends)
# VHH: B1 VHH with R29Q, S54F, S55E, R105G, V108Y
# notes: trispecific; also called 01G08 TriTAC
# B13: BCMA targeting trispecific protein 02B06 (other, not shown: large carriers; small tags and cut ends)
# VHH: B1 VHH with R29F, I31N, S54F, R105G, V108Y
# notes: trispecific; also called 02B06 TriTAC
# B14: BCMA targeting trispecific protein 02E06 (other, not shown: large carriers; small tags and cut ends)
# VHH: B1 VHH with R29F, I31D, S54F, L57F, R105G, V108Y
# notes: trispecific; also called 02E06 TriTAC
# B15: BCMA targeting trispecific protein 02H01 (other, not shown: large carriers; small tags and cut ends)
# VHH: B1 VHH with R29F, I31K, V108Y
# notes: trispecific
# B16: BCMA targeting trispecific protein 02F02 (other)
# VHH: B1 VHH with R29F, I31K, R105G, V108Y
# notes: trispecific; also called 02F02 TriTAC; not shown: The C-terminal 6xHis tag is left out because it follows these missing domains
# B17: BCMA targeting trispecific protein 02H04 (other)
# VHH: B1 VHH with R29F, I31V, S54N, V108Y
# notes: as for B3
# B18: BCMA targeting trispecific protein 02G08 (other, not shown: large carriers; small tags and cut ends)
# VHH: B1 VHH with R29D, S54E, V108T
# notes: trispecific
# B19: BCMA targeting trispecific protein 02G05 (other, not shown: large carriers; small tags and cut ends)
# VHH: B1 VHH with R29T, S54N, R105G, V108Y
# notes: trispecific
# B20: BCMA targeting trispecific protein 01F07 (other, not shown: large carriers; small tags and cut ends)
# VHH: B1 VHH with R29F, I31T, S54F, L57I, R105G, V108Y
# notes: trispecific; also called 01F07 TriTAC
# B21: BCMA targeting trispecific protein 02H09 (other, not shown: large carriers; small tags and cut ends)
# VHH: B1 VHH with R29F, I31R, R105G, V108Y
# notes: trispecific
# B22: 01F07-M34G TriTAC (other, not shown: large carriers; small tags and cut ends)
# VHH: B1 VHH with R29F, I31T, M34G, S54F, L57I, R105G, V108Y
# notes: trispecific; also called 01F01-M34G
# B23: 02G02-M34G TriTAC (other, not shown: large carriers; small tags and cut ends)
# VHH: B1 VHH with R29F, S32T, M34G, S54A, R105G, V108Y
# notes: trispecific
# B24: 01F07-M34Y TriTAC (other)
# VHH: B1 VHH with R29F, I31T, M34Y, S54F, L57I, R105G, V108Y
# notes: trispecific; not shown: anti-albumin domain, anti-CD3 domain and the linkers of the TriTAC; the C-terminal His6 that follows them is left out
# B25: 02G02-M34Y TriTAC (other, not shown: large carriers; small tags and cut ends)
# VHH: B1 VHH with R29F, S32T, M34Y, S54A, R105G, V108Y
# notes: trispecific
# B26: BH2T TriTAC (protein, part only; not given: anti-albumin and anti-CD3 domains, part only)
# chain, part: EVQLVESGGGLVQPGRSLTLSCAASTNIFSISPMGWYRQAPGKQRELVAAIHGFSTLYADSVKGRFTISRDNAKNSIYLQMNSLRPEDTALYYCNKVPWGDYHPRNVYWGQGTQVTVSSHHHHHH
# Target: T1, human BCMA protein
# Assay: affinity to human BCMA protein, method not stated
row,Kd,Binder
1,23.3 nM,B1
2,6.53 nM,B2
3,27.5 nM,B3
4,7.5 nM,B4
5,20.5 nM,B5
6,19.3 nM,B6
7,6.75 nM,B7
8,19.6 nM,B8
9,2.86 nM,B9
10,34.4 nM,B10
11,5.26 nM,B11
12,6.27 nM,B12
13,6.77 nM,B13
14,6.31 nM,B14
15,35.6 nM,B15
16,6.73 nM,B16
17,31.1 nM,B17
18,18 nM,B18
19,7.12 nM,B19
20,4.18 nM,B20
21,6.83 nM,B21

# Target: T2, human BCMA on BCMA expressing cell lines
# Assay: cell-based or functional assay
row,TDCC EC50 (EJM cells),Binder
1,0.0319 nM,B1
2,0.00137 nM,B2
3,0.0775 nM,B3
4,0.00339 nM,B4
5,0.0238 nM,B5
6,0.0446 nM,B6
7,0.00172 nM,B7
8,0.0389 nM,B8
9,0.000341 nM,B9
10,0.0396 nM,B10
11,0.00108 nM,B11
12,0.00191 nM,B12
13,0.00165 nM,B13
14,0.00157 nM,B14
15,0.0542 nM,B15
16,0.00136 nM,B16
17,0.0599 nM,B17
18,0.0286 nM,B18
19,0.00433 nM,B19
20,0.000702 nM,B20
21,0.00288 nM,B21

# Target: T2, human BCMA on BCMA expressing cell lines
# Assay: cell-based or functional assay
# Remark: another data set of the same source
TDCC Jeko1 EC50,TDCC MOLP-8 EC50,TDCC OPM-2 EC50,Binder
0.009 nM,0.0022 nM,0.0056 nM,B22
0.011 nM,0.0033 nM,0.012 nM,B2
0.012 nM,0.004 nM,0.0071 nM,B23
0.01 nM,0.0025 nM,0.0073 nM,B7
0.004 nM,0.00094 nM,0.0031 nM,B9
0.011 nM,0.0028 nM,0.0066 nM,B11
0.015 nM,0.0025 nM,0.0069 nM,B12
0.011 nM,0.0028 nM,0.0097 nM,B13
0.0091 nM,0.0024 nM,0.0074 nM,B14
0.0082 nM,0.0035 nM,0.01 nM,B16
0.0056 nM,0.0015 nM,0.0036 nM,B24
0.011 nM,0.0056 nM,0.0062 nM,B25
0.0053 nM,0.0015 nM,0.0044 nM,B20

# Target: T2, human BCMA on BCMA expressing cell lines
# Assay: cell-based or functional assay
# Remark: another data set of the same source
TDCC Jeko1 EC50,TDCC MOLP-8 EC50,TDCC OPM-2 EC50,Binder
0.32 nM,0.2 nM,0.16 nM,B26

# Target: T1, human BCMA protein
# Assay: affinity of purified protein to human BCMA protein, method not stated
row,Kd,Binder
1,6 nM,B22
2,7 nM,B23
3,3 nM,B24
4,5 nM,B25

# — patent US20240327534A1 (HARPOON THERAPEUTICS, published 2024)
